US20200299408A1 (Genentech, published 2020)

Assays:
[1] = target: T1, single chain human CD3ε-26mer-CD3γ (CD3εγ) (human); experiment: Biacore full (multi-) cycle kinetics: antigen on chip, Fab injected; antigen not named on the sheet, taken as human CD3εγ
T1 construct: also called human CD3εγ
T1 chain: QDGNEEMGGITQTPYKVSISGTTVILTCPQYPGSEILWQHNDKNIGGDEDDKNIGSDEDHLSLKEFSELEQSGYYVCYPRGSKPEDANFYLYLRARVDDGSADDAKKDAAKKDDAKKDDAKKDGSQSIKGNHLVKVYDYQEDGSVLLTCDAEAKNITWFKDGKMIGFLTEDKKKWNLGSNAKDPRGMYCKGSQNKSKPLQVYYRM
Source text: (§1) In addition, position 95 in HVR-H3 was also mutated to serine, threonine, or glutamate. Variants with these single point mutations were expressed as Fabs in HEK293 cells and initially screened with a single cycle kinetics method on a Biacore T100. Selected variants were also scaled up and purified for a conventional multi-cycle kinetics method. For single cycle kinetics, Biacore Series S CM5 sensor chips were immobilized with anti-human Fab antibodies (Human Fab capture kit, GE Healthcare). […] For conventional multi-cycle kinetics, human CD3εγ, cyno CD3εγ, or a 27-mer peptide were immobilized on Biacore Series S CM5 sensor chip using the amine coupling kit from Biacore. Serial 3-fold dilutions of each Fab variant were injected at a flow rate of 30 μl/min. Each sample was analyzed with a protocol of 3-minute association and 3-minute dissociation. In both methods, the Biacore chips were regenerated using 10 mM Glycine (pH 1.7). Binding response was corrected by blank subtraction and a 1:1Languir model of simultaneous fitting of kₒₙ and koff was used for kinetics analysis.

[2] = target: T1, single chain human CD3ε-26mer-CD3γ …; experiment: Biacore full (multi-) cycle kinetics; reference of the ratio column
Source text: as §1

[3] = target: T1, single chain human CD3ε-26mer-CD3γ …; experiment: SPR (Biacore 4000): CD3εγ (row WT) captured from the periplasmic fraction on UCHT1v9; analyte a bispecific antibody with one 38E4v1 arm and one irrelevant arm, 0.39-100 nM
Description: (§2) The secreted CD3εγ variants were captured from the crude periplasmic fraction using anti-CD3 antibody UCHT1v9. UCHT1v9 was immobilized on a CM5 serios S chip through amine coupling using the anti-human IgG (Fc) antibody capture kit (BR-1008-39) from GE Healthcare. SPR measurements were performed on the Biacore 4000 instrument, utilizing kinetic evaluation software. In order to measure monovalent binding affinities, anti-CD3 bispecific antibodies were used in which one arm was the anti-CD3 to be tested and the arm recognized an irrelevant antigen. The bispecific anti-CD3 antibodies were passed over the captured supernatant in a concentration series of two-fold dilutions from 0.39 to 100 nM. The resulting kinetics (FIG. 13D) were measured and calculated using Biacore 4000 BIAevaluation software (product code 28-9664-57).

[4] = target: T1, single chain human CD3ε-26mer-CD3γ …; experiment: Biacore, human CD3εγ on chip, Fab in flow through
Description: Binding affinities for the each of the CD3/CD20 TDBs were tested by Biacore or FACS analysis, as described above for the anti-CD3 antibodies. Briefly, for Biacore binding assays, human CD3εγ was immobilized on Biacore Series S CM5 sensor chip using the amine coupling kit from Biacore and CD3/CD20 TDBs or Fab variants thereof were in the flow through. For FACS binding assays, either Bjab cells (for B cell antigens) or Jurkat cells (for CD3 antigen) were incubated with various concentrations of TDB antibodies at 4° C. for 30 minutes, then cells were washed and incubated with 2nd antibody (anti-huIgG-PE; BD Bioscience) for another 15 minutes, before cells were washed again and ready for FACS analysis.

D2A = target: T2, D2A; experiment: SPR (Biacore 4000): CD3εγ variant captured from the periplasmic fraction on UCHT1v9; analyte a bispecific antibody with one 38E4v1 arm and one irrelevant arm, 0.39-100 nM
T2 construct: Residue number counts from the N-terminus of CD3ε; also called CD3εγ D2A; CD3 mutant D2A
T2 single chain CD3ε-26mer linker-CD3γ: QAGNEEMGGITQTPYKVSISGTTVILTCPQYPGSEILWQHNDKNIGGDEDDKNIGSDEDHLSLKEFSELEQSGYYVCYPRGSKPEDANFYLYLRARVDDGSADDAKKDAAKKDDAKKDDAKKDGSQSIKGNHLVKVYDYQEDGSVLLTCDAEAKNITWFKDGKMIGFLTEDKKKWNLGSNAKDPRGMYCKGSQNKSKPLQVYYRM
Description: as §2

G8A = target: T3, G8A; experiment: as above
T3 construct: Residue number counts from the N-terminus of CD3ε; also called CD3εγ G8A
T3 single chain CD3ε-26mer linker-CD3γ: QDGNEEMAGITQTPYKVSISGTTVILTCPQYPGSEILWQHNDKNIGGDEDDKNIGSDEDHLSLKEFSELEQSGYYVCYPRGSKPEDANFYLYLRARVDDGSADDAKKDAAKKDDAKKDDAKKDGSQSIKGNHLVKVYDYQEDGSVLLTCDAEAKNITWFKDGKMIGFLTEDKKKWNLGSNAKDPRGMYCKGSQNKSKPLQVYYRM
Description: as §2

[5] = target: T1, single chain human CD3ε-26mer-CD3γ …; experiment: Biacore, human CD3εγ on chip, antibody in flow-through
[6] = target: T1, single chain human CD3ε-26mer-CD3γ …; experiment: Biacore single cycle kinetics; reference of the ratio column
Source text: as §1

[7] = target: T1, single chain human CD3ε-26mer-CD3γ …; experiment: Biacore, monovalent KD of the CD3 arm; CD3 antigen not named on the sheet (reactivity hu, cyno)
[8] = target: T1, single chain human CD3ε-26mer-CD3γ …; experiment: Biacore single cycle kinetics: Fab captured by anti-human Fab, human CD3εγ injected (3-250 nM)
Source text: as §1

- Kd [1]: 0.8 nM
- koff [1]: 0.00433 s⁻¹
- kon [1]: 5.44e+06 M⁻¹ s⁻¹
- ratio (fold) [2]: 1 fold
- Kd [3]: 3 nM
- Kd [4]: 0.8 nM
- koff [4]: 0.00507 s⁻¹
- kon [4]: 6.06e+06 M⁻¹ s⁻¹
- Kd (D2A): 1500 nM
- Kd (G8A): 8 nM
- Kd [5]: 0.8 nM
- koff [5]: 0.0051 s⁻¹
- kon [5]: 6.06e+06 M⁻¹ s⁻¹
- ratio (fold) [6]: 1 fold
- Kd [7]: 1.3 nM
- Kd [8]: 3.4 nM
- koff [8]: 0.00108 s⁻¹
- kon [8]: 320000 M⁻¹ s⁻¹
B1: hu38E4.v1 Fab (Fab, V domains shown)
VH: EVQLVQSGAEVKKPGASVKVSCKASGFTFTSYYIHWVRQAPGQGLEWIGWIYPENDNTKYNEKFKDRVTITADTSTSTAYLELSSLRSEDTAVYYCARDGYSRYYFDYWGQGTLVTVSS
VL: DIVMTQSPDSLAVSLGERATINCKSSQSLLNSRTRKNYLAWYQQKPGQSPKLLIYWTSTRKSGVPDRFSGSGSGTDFTLTISSLQAEDVAVYYCKQSFILRTFGQGTKVEIK
notes: Humanized anti-CD3 Fab; Point mutants of it were expressed as Fabs in HEK293 cells
